From patent US20090317333

System: AKAR3 (A-Kinase Activity Reporter 3)

Q: Which results are given for “catalytic subunit of PKA (protein kinase A), as used in the in vitro kinase assay”?
A: FRET efficiency of AKAR3 after phosphorylation (trypsin quantification): 38.8%±7.36% and 47.2%±7.67% (n=2) before and after phosphorylation, respectively; FRET efficiency of AKAR3 before phosphorylation (trypsin quantification): 38.8%±7.36% and 47.2%±7.67% (n=2) before and after phosphorylation, respectively; increase of the emission ratio of AKAR3 over approximately 40 minutes after addition of ATP (in vitro kinase assay): 29.1%±1.11% (n=2)
